From patent US20240117018A1

How the values were obtained:
Experiment in all cases: cell-based or functional assay
[1] = target: Env of HIV-1 pseudovirus 0260.v5.c36 (HIV-1)
[2] = target: Env of HIV-1 pseudovirus 1012_11_TC21_3257 (HIV-1)
[3] = target: Env of HIV-1 pseudovirus 62357_14_D3_4589 (HIV-1)
[4] = target: Env of HIV-1 pseudovirus 6240_08_TA5_4622 (HIV-1)
[5] = target: Env of HIV-1 pseudovirus BF1266.431a (HIV-1)
[6] = target: Env of HIV-1 pseudovirus CAP210.2.00.E8 (HIV-1)
[7] = target: Env of HIV-1 pseudovirus CNE21 (HIV-1)
[8] = target: Env of HIV-1 pseudovirus CNE58 (HIV-1)
[9] = target: Env of HIV-1 pseudovirus Ce2060_G9 (HIV-1)
[10] = target: Env of HIV-1 pseudovirus Du156.12 (HIV-1)
[11] = target: Env of HIV-1 pseudovirus Du172.17 (HIV-1)
[12] = target: Env of HIV-1 pseudovirus SC422661.8 (HIV-1)
[13] = target: Env of HIV-1 pseudovirus TRO.11 (HIV-1)
[14] = target: Env of HIV-1 pseudovirus WITO4160.33 (HIV-1)
[15] = target: Env of HIV-1 pseudovirus ZM197M.PB7 (HIV-1)
[16] = target: Env of HIV-1 pseudovirus ZM233M.PB6 (HIV-1)
[17] = target: Env of HIV-1 pseudovirus ZM247v1(Rev-) (HIV-1)
[18] = target: Env of HIV-1 pseudovirus ZM53M.PB12 (HIV-1)
[19] = target: HIV-1 Env pseudovirus 1394C9G1(Rev-) (HIV-1)
[20] = target: HIV-1 Env pseudovirus Ce1176_A3 (HIV-1)
[21] = target: HIV-1 Env pseudovirus HIV-16055-2.3 (HIV-1)
[22] = target: HIV-1 Env pseudovirus HIV-16845-2.22 (HIV-1)
[23] = target: HIV-1 Env pseudovirus Q259.d2.17 (HIV-1)
[24] = target: HIV-1 Env pseudovirus TRJO4551.58 (HIV-1)
[25] = target: HIV-1 Env pseudovirus TRO.11 (HIV-1)
[26] = target: HIV-1 Env pseudovirus ZM135M.PL10a (HIV-1)
[27] = target: HIV-1 Env pseudovirus ZM197M.PB7 (HIV-1)
[28] = target: HIV-1 Env pseudovirus ZM249M.PL1 (HIV-1)
[29] = target: HIV-1 Env pseudovirus ZM53M.PB12 (HIV-1)

Work on PG16 (antibody) yielded an IC50 [1] of 1.54 µg/mL, an IC80 [1] of 36.1 µg/mL and an IC50 [2] of 0.03 µg/mL. For the same substance, the IC80 [2] was 0.219 µg/mL, the IC50 [3] was > 50 µg/mL and the IC80 [3] was > 50 µg/mL. The IC50 [4] was > 50 µg/mL, the IC80 [4] was > 50 µg/mL and the IC50 [5] was 0.003 µg/mL. It also gave an IC80 [5] of 0.009 µg/mL, an IC50 [6] of 0.01 µg/mL and an IC80 [6] of 0.042 µg/mL. For the same substance, the IC50 [7] was 0.007 µg/mL, the IC80 [7] was 0.026 µg/mL and the IC50 [8] was 0.044 µg/mL. It also gave an IC80 [8] of 0.25 µg/mL, an IC50 [9] of 0.075 µg/mL and an IC80 [9] of 1.71 µg/mL. The IC50 [10] was 0.006 µg/mL, the IC80 [10] was 0.026 µg/mL and the IC50 [11] was 0.033 µg/mL. For the same substance, the IC80 [11] was 0.213 µg/mL, the IC50 [12] was 0.858 µg/mL and the IC80 [12] was > 50 µg/mL. For the same substance, the IC50 [13] was 1.92 µg/mL, the IC80 [13] was 49.6 µg/mL and the IC50 [14] was 0.002 µg/mL. The IC80 [14] was 0.012 µg/mL, the IC50 [15] was 1.5 µg/mL and the IC80 [15] was 22.8 µg/mL. It also gave an IC50 [16] of 0.002 µg/mL, an IC80 [16] of 0.006 µg/mL and an IC50 [17] of 0.016 µg/mL. The IC80 [17] was 0.189 µg/mL, the IC50 [18] was 0.007 µg/mL and the IC80 [18] was 0.051 µg/mL.
For N49P11 (antibody), the IC50 [19] was 6.13 µg/mL, the IC80 [19] was 22.3 µg/mL and the MPI [19] was 100. For the same substance, the IC50 [20] was 0.946 µg/mL, the IC80 [20] was 6.05 µg/mL and the MPI [20] was 100. The IC50 [21] was 0.091 µg/mL, the IC80 [21] was 0.503 µg/mL and the MPI [21] was 100. The IC50 [22] was 1.72 µg/mL, the IC80 [22] was 8.15 µg/mL and the MPI [22] was 100. For the same substance, the IC50 [23] was 8.42 µg/mL, the IC80 [23] was 21.4 µg/mL and the MPI [23] was 100. It also gave an IC50 [24] of 0.183 µg/mL, an IC80 [24] of 0.656 µg/mL and an MPI [24] of 100. It also gave an IC50 [25] of 0.179 µg/mL, an IC80 [25] of 0.937 µg/mL and an MPI [25] of 100. The IC50 [26] was 3.97 µg/mL, the IC80 [26] was 16.6 µg/mL and the MPI [26] was 100. For the same substance, the IC50 [27] was 0.303 µg/mL, the IC80 [27] was 1.59 µg/mL and the MPI [27] was 100. The IC50 [28] was 3.64 µg/mL, the IC80 [28] was 17.4 µg/mL and the MPI [28] was 100. It also gave an IC50 [29] of 1.05 µg/mL, an IC80 [29] of 6.53 µg/mL and an MPI [29] of 100.
In the case of N49P18.1 (antibody), the IC50 [19] is reported as > 50 µg/mL, the IC80 [19] is reported as > 50 µg/mL and the MPI [19] is reported as 17. For the same substance, the IC50 [20] was 32.5 µg/mL, the IC80 [20] was > 50 µg/mL and the MPI [20] was 61. It also gave an IC50 [21] of 8.04 µg/mL, an IC80 [21] of 22.6 µg/mL and an MPI [21] of 97. For the same substance, the IC50 [22] was > 50 µg/mL, the IC80 [22] was > 50 µg/mL and the MPI [22] was 23. For the same substance, the IC50 [23] was > 50 µg/mL, the IC80 [23] was > 50 µg/mL and the MPI [23] was 37. The IC50 [24] was 4.44 µg/mL, the IC80 [24] was 14.7 µg/mL and the MPI [24] was 99. It also gave an IC50 [25] of 4.25 µg/mL, an IC80 [25] of 11.7 µg/mL and an MPI [25] of 99. For the same substance, the IC50 [26] was > 50 µg/mL, the IC80 [26] was > 50 µg/mL and the MPI [26] was 46. The IC50 [27] was 12.5 µg/mL, the IC80 [27] was 49.8 µg/mL and the MPI [27] was 84. The IC50 [28] was 4.16 µg/mL, the IC80 [28] was 19.8 µg/mL and the MPI [28] was 98. For the same substance, the IC50 [29] was 1.3 µg/mL, the IC80 [29] was 4.51 µg/mL and the MPI [29] was 99.
For 10E8 (antibody), the IC50 [1] was > 10 µg/mL, the IC80 [1] was > 10 µg/mL and the IC50 [2] was 0.244 µg/mL. The IC80 [2] was 4.21 µg/mL, the IC50 [3] was 0.119 µg/mL and the IC80 [3] was 1.06 µg/mL. The IC50 [4] was 0.756 µg/mL, the IC80 [4] was 5.59 µg/mL and the IC50 [5] was 2.69 µg/mL. The IC80 [5] was > 10 µg/mL, the IC50 [6] was 0.798 µg/mL and the IC80 [6] was 3.89 µg/mL. The IC50 [7] was 1.9 µg/mL, the IC80 [7] was > 10 µg/mL and the IC50 [8] was 1.29 µg/mL. For the same substance, the IC80 [8] was 8.27 µg/mL, the IC50 [9] was 3.52 µg/mL and the IC80 [9] was > 10 µg/mL. The IC50 [10] was 0.034 µg/mL, the IC80 [10] was 0.144 µg/mL and the IC50 [11] was 0.109 µg/mL. The IC80 [11] was 0.837 µg/mL, the IC50 [12] was 0.445 µg/mL and the IC80 [12] was 2.71 µg/mL. It also gave an IC50 [13] of 0.034 µg/mL, an IC80 [13] of 0.25 µg/mL and an IC50 [14] of 0.094 µg/mL. For the same substance, the IC80 [14] was 1.23 µg/mL, the IC50 [15] was 0.148 µg/mL and the IC80 [15] was 0.802 µg/mL. For the same substance, the IC50 [16] was 0.442 µg/mL, the IC80 [16] was 2.39 µg/mL and the IC50 [17] was 0.506 µg/mL. For the same substance, the IC80 [17] was 6.75 µg/mL, the IC50 [18] was 3.98 µg/mL and the IC80 [18] was > 10 µg/mL.
